Results taken from patent US20250101446A1, “METHOD FOR GENETIC TRANSFORMATION OF PLANT ORGANELLE GENOME AND USES THEREOF” (Solar Grants Biotechnology Inc., priority 2022, published 2025).

Tested on: LPS-stimulated PBMCs
Test: Cytokine secretion from LPS-stimulated PBMCs treated with plantakines (multiplex Luminex)
Assay type: cell-based, human
Procedure: The bioactivity of our plantakines IL-37b and IL-38 was assessed by monitoring the secretion of 11 cytokines, generally regarded as inflammatory markers, from PBMCs stimulated with an IA. Freshly isolated human PBMCs were subjected to various treatments-combinations of the IAs with the plantakines at different concentrations. Two different model IAs were used, either the bacterial lipopolysaccharides (LPS) or a lectin from Phaseolus vulgaris (phytohaemagglutinin, PHA); each of the IAs was applied onto cells separately, each IA was applied at two concentrations: […]; PHA at 5 and 10 μg/mL. Each IA at each concentration was applied in combination with one of the two plantakines, each of them at three different concentrations: 1, 10 and 100 ng/ml of the monomeric forms present in the purified extracts. Also included were treatments comprised of either IA at their lower concentrations, in combination with both plantakines at 10 ng/ml concentration in order to assess possible synergistic effects. Cells with only IAs applied represented the reference (positive controls for each concentration), cells without any treatment represented the basal level (negative control). The levels of eleven different pro-inflammatory cytokines secreted into the medium from the PBMCs-GM-SCF, IFNγ. TNFα, IL-1α, IL-1β, IL-6, IL-8, IL-22, IL12, IL-17 and IL-10 were compared between the treatments and the controls. We applied Generalized Estimating Equation (GEE) model for the statistical data analysis. This statistical approach allows for nested observations and was used to test the effects of the plantakines IL-37b and IL-38 and their dosage in the context of IA-stimulated PBMCs inflammatory responses.
After isolation, the PBMCs from each donor separately were counted, plated in equal numbers per well and stimulated for 24 h with the applied treatments. Control wells on the plate contained media only (as basal level controls), and LPS and PHA (as positive controls at their corresponding concentrations). After the 24 h treatments stimulation the PBMCs' culture supernatants were used in the multiplex Luminex platform-assisted analysis of the concentrations of the 11 secreted pro-inflammatory cytokines.
The whole blood from 5 random human donors was collected in ACD Vacutainer tubes and immediately processed for isolation of PBMCs by gradient density centrifugation using Lympholyte. […] 5% CO2 and >80% humidity. PBMCs were treated with one of two IAs at 2 concentrations each ([…]; PHA at 5 and 10 μg/mL) in combination with two test items (plant-produced IL-37b or IL-38) at three concentrations each (1, 10 and 100 ng/ml), based on the monomeric form amounts estimated with densitometry (ImageJ). Each treatment was tested in triplicates. Control wells contained media only (negative control, basal level of detection) and the examined IAs at both tested concentrations as the positive controls. The PBMCs were incubated for 24 hours after the stimulation for analysis of the levels of the secreted cytokines that were determined in the culture supernatant using a multiplex immunoassay (MAGPix®, Luminex), analytes were selected from the Milliplex panel HCYTOMAG-60K, sensitivity range of […]. All parameters of the Milliplex panel cytokines analysis using Luminex platform were validated (Millipore-Sigma).
Non-linear logarithm transformation was performed to address non-normality of distribution of Luminex-derived numeric data. Generalized Estimating Equation (GEE) method was used in the analysis of nested (correlated) structure of the data. Secreted inflammatory cytokine values were used as dependent variables and test item (plantakines) with dosage as independent predictors (factors). Separate analyses were conducted for each of the 11 monitored cytokines and each inflammatory agent/concentration combination. Analysis was performed using SPSS software version 27 using the level of significance 0.05 (p-values <0.05 are reported as statistically significant). […]

B1: plant-produced recombinant human IL-38, mature form C2-W152 with C-terminal 7xHIS tag (ligand)
chain: CSLPMARYYIIKYADQKALYTRDGQLLVGDPVADNCCAEKICILPNRGLARTKVPIFLGIQGGSRCLACVETEEGPSLQLEDVNIEELYKGGEEATRFTFFQSSSGSAFRLEAAAWPGWFLCGPAEPQQPVQLTKESEPSARTKFYFEQSWHHHHHHH
notes: range 2-152; also called rhIL-38; plantakine IL-38
1 ng/mL, LPS 150 pg/mL
  secreted GM-CSF level modulation vs positive control: −59.4%, p < 0.001
  secreted IL-1α level modulation vs positive control: −25.9%, p < 0.001
  secreted IL-1β level modulation vs positive control: −27.4%, p < 0.001
  secreted IL-6 level modulation vs positive control: −7.7%, p = 0.178
  secreted IL-8 level modulation vs positive control: 22.1%, p = 0.625
  secreted IL-10 level modulation vs positive control: −14.8%, p = 0.040
  secreted IL-12 level modulation vs positive control: 14.9%, p = 0.607
  secreted IL-17 level modulation vs positive control: −21.3%, p = 0.004
  secreted IL-22 level modulation vs positive control: −38.1%, p = 0.065
  secreted TNFα level modulation vs positive control: −36.9%, p = 0.035
1 ng/mL, LPS 300 pg/mL
  secreted GM-CSF level modulation vs positive control: −14.1%, p = 0.118
  secreted IFNγ level modulation vs positive control: −16.5%, p = 0.006
  secreted IL-1α level modulation vs positive control: −7.7%, p = 0.178
  secreted IL-1β level modulation vs positive control: −13.1%, p < 0.001
  secreted IL-6 level modulation vs positive control: −5.8%, p = 0.323
  secreted IL-10 level modulation vs positive control: 6.2%, p = 0.006
  secreted IL-12 level modulation vs positive control: 1.9%, p = 0.906
  secreted IL-17 level modulation vs positive control: −28.8%, p < 0.001
  secreted IL-22 level modulation vs positive control: −40.0%, p < 0.001
  secreted TNFα level modulation vs positive control: −49.3%, p = 0.184
10 ng/mL, LPS 150 pg/mL
  secreted GM-CSF level modulation vs positive control: 7.3%, p = 0.230
  secreted IFNγ level modulation vs positive control: −16.5%, p = 0.012
  secreted IL-1α level modulation vs positive control: −14.8%, p < 0.001
  secreted IL-1β level modulation vs positive control: −13.1%, p = 0.002
  secreted IL-6 level modulation vs positive control: 0.0%, p = 1.000
  secreted IL-8 level modulation vs positive control: 8.3%, p = 0.639
  secreted IL-10 level modulation vs positive control: −3.9%, p = 0.264
  secreted IL-12 level modulation vs positive control: 51.1%, p = 0.522
  secreted IL-17 level modulation vs positive control: −16.5%, p = 0.012
  secreted IL-22 level modulation vs positive control: −29.4%, p = 0.008
  secreted TNFα level modulation vs positive control: −44.0%, p = 0.116
10 ng/mL, LPS 300 pg/mL
  secreted GM-CSF level modulation vs positive control: 29.1%, p < 0.001
  secreted IFNγ level modulation vs positive control: −24.4%, p = 0.018
  secreted IL-1α level modulation vs positive control: 2.0%, p = 0.550
  secreted IL-1β level modulation vs positive control: −2.0%, p = 0,550
  secreted IL-6 level modulation vs positive control: 2.0%, p = 0.736
  secreted IL-8 level modulation vs positive control: −5.8%, p = 0.469
  secreted IL-10 level modulation vs positive control: 8.3%, p = 0.178
  secreted IL-12 level modulation vs positive control: 10.6%, p = 0.586
  secreted IL-17 level modulation vs positive control: −31.6%, p < 0.001
  secreted IL-22 level modulation vs positive control: −45.0%, p < 0.001
  secreted TNFα level modulation vs positive control: −40.5%, p = 0.311
100 ng/mL, LPS 150 pg/mL
  secreted GM-CSF level modulation vs positive control: 21.2%, p = 0.013
  secreted IFNγ level modulation vs positive control: −40.5%, p = 0.008
  secreted IL-1α level modulation vs positive control: −3.9%, p = 0.380
  secreted IL-1β level modulation vs positive control: −13.1%, p = 0.002
  secreted IL-6 level modulation vs positive control: 0.0%, p = 1.000
  secreted IL-8 level modulation vs positive control: −9.5%, p = 0.077
  secreted IL-10 level modulation vs positive control: −30.2%, p < 0.001
  secreted IL-12 level modulation vs positive control: 17.2%, p = 0.544
  secreted IL-17 level modulation vs positive control: −24.4%, p = 0.025
  secreted IL-22 level modulation vs positive control: −23.7%, p = 0.241
  secreted TNFα level modulation vs positive control: −34.3%, p = 0.232
100 ng/mL, LPS 300 pg/mL
  secreted GM-CSF level modulation vs positive control: 88.8%, p < 0.001
  secreted IFNγ level modulation vs positive control: −21.3%, p < 0.001
  secreted IL-1α level modulation vs positive control: 6.2%, p = 0.188
  secreted IL-1β level modulation vs positive control: 2.0%, p = 0.648
  secreted IL-6 level modulation vs positive control: 0.0%, p = 1.000
  secreted IL-8 level modulation vs positive control: 46.2%, p = 0.500
  secreted IL-10 level modulation vs positive control: −28.8%, p < 0.001
  secreted IL-12 level modulation vs positive control: 17.4%, p = 0.271
  secreted IL-17 level modulation vs positive control: −30.2%, p < 0.001
  secreted IL-22 level modulation vs positive control: −31.8%, p = 0.003
  secreted TNFα level modulation vs positive control: −13.1%, p = 0.581
LPS 150 pg/mL
  Decreased secretion: number of treatments with statistically significant modulation: 16
  Increased secretion: number of treatments with statistically significant modulation: 1
LPS 300 pg/mL
  Decreased secretion: number of treatments with statistically significant modulation: 12
  Increased secretion: number of treatments with statistically significant modulation: 2
